Experimental data as given in US20240325445A1 (Regeneron, published 2024).

How the values were obtained:
[1] = biological target: human B-cell maturation antigen (BCMA) on cells (human) (UniProt Q02223); assay: cell-based or functional assay
[2] = biological target: T1, human B-cell maturation antigen (BCMA) on cells (human, UniProt Q02223 1-184); assay: cell-based or functional assay
T1 sequence: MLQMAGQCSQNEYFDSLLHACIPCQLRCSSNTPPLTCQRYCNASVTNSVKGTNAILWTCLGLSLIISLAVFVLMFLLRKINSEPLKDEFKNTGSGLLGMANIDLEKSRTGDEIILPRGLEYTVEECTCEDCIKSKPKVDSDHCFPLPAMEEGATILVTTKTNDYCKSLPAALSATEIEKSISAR

[3] = biological target: irrelevant protein fused to hIgG1-Fc (human); assay: flow cytometry; 10 ug/ml Fc isotype control on Jurkat/NFATLuc cells carrying the CAR, Alexa 647 secondary antibody
[4] = biological target: T2, BCMA extracellular domain fused to an hIgG1-Fc (human, UniProt Q02223 1-54); assay: flow cytometry; 10 ug/ml BCMA ecto-hFc on Jurkat/NFATLuc cells carrying the CAR, Alexa 647 secondary antibody
T2 construct: also called BCMA ecto-hFc; BCMA-hFc; not shown: human IgG1 Fc
T2 sequence: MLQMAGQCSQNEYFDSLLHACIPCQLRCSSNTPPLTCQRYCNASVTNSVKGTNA
Protocol: Relative cell surface expression of the BCMA CAR constructs in Jurkat/NFATLuc cells was accessed by flow cytometry. […] Cells were then washed and fixed using a 50% solution of BD Cytofix (BD, Cat #554655) diluted in staining buffer. Samples were run on the Intellicyt iQue flow cytometer and analyzed by FlowJo 10.2 to calculate the mean fluorescent intensity (MFI). The signal to noise ratio (S:N) is determined by taking the ratio of the BCMA-hFc or Fc isotype control MFI to the secondary antibody alone MFI.

[5] = biological target: T1, human B-cell maturation antigen (BCMA) …; assay: cell-based or functional assay; remark: listed apart in the source

control chimeric antigen receptor with an irrelevant scFv (17363)
percent cytotoxicity (calcein release), H929 target cells, T effector:target ratio 50, mean [1]: -0.8%
percent cytotoxicity (calcein release), MOLP8 target cells, T effector:target ratio 50, mean [1]: -3.1%

B1: BCMA 16711 VL-VH chimeric antigen receptor (scFv of mAb16711) (scFv)
chain: DIQMTQSPSSVSASVGDRVTITCRASRGISSWLAWYQQKPGKAPKLLIHAASSLQSGVPSRFSGSGSGTDFTLTISSLQPEDFATYYCQQAISFPFTFGPGTKVDIKGGGGSGGGGSGGGGSQVQLVESGGGVVQPGRSLRLSCAASGFTFSTYGIHWVRQAPGKGLEWVAVILHDGSSNYYAESVKGRFIISRDNSKNTLYLQMNSLRAEDTALYYCTKRYSEAAGPNWFDPWGQGTLVTVSSTTTPAPRPPTPAPTIASQPLSLRPEACRPAAGGAVHTRGLDFACDIYIWAPLAGTCGVLLLSLVITLYCKRGRKKLLYIFKQPFMRPVQTTQEEDGCSCRFPEEEEGGCELRVKFSRSADAPAYKQGQNQLYNELNLGRREEYDVLDKRRGRDPEMGGKPRRKNPQEGLYNELQKDKMAEAYSEIGMKGERRRGKGHDGLYQGLSTATKDTYDALHMQALPPR
notes: 3C7 cells; a linker before the hinge or a signal peptide may be present; also called 16711 VL-VH CART; 16711 CAR
CAR-T Max Activity (NFAT-luciferase, S:N), APC Daudi [2]: 2.6 S:N (highest RLU / lowest RLU)
CAR-T Max Activity (NFAT-luciferase, S:N), APC RAJI [2]: 7.9 S:N (highest RLU / lowest RLU)
CAR-T Max Activity (NFAT-luciferase, S:N), APC RPMI8226 [2]: 1.8 S:N (highest RLU / lowest RLU)
S:N (Isotype-hFc) (ratio of MFI to secondary antibody alone) [3]: 1.2
S:N (BCMA-hFc) [4]: 3.7 ratio of MFI to secondary antibody alone

B2: BCMA 16747 VL-VH chimeric antigen receptor (scFv of mAb16747) (scFv)
chain: DIQMTQSPSSVSASVGDRVTITCRASQGINNWLVWYQQKPGKAPKLLIYAATSLQSGVPSRFSGSGSGTDFTLTISSLQPEDFATYYCQQANSFPPTFGQGTKLEIKGGGGSGGGGSGGGGSQVQLVESGGGLVKPGGSLRLSCAASGFTFSDYYISWIRQAPGKGLEWVSYISSSGSSIKYADSVKGRFTISRDNAKNSLYLQMNSLRAEDTAVYYCAREGGNYGMDVWGQGTTVTVSSTTTPAPRPPTPAPTIASQPLSLRPEACRPAAGGAVHTRGLDFACDIYIWAPLAGTCGVLLLSLVITLYCKRGRKKLLYIFKQPFMRPVQTTQEEDGCSCRFPEEEEGGCELRVKFSRSADAPAYKQGQNQLYNELNLGRREEYDVLDKRRGRDPEMGGKPRRKNPQEGLYNELQKDKMAEAYSEIGMKGERRRGKGHDGLYQGLSTATKDTYDALHMQALPPR
notes: a linker before the hinge or a signal peptide may be present
CAR-T Max Activity (NFAT-luciferase, S:N), APC Daudi [2]: 14 S:N (highest RLU / lowest RLU)
CAR-T Max Activity (NFAT-luciferase, S:N), APC RAJI [2]: 38.9 S:N (highest RLU / lowest RLU)
CAR-T Max Activity (NFAT-luciferase, S:N), APC RPMI8226 [2]: 12.5 S:N (highest RLU / lowest RLU)
S:N (Isotype-hFc) (ratio of MFI to secondary antibody alone) [3]: 1.3
S:N (BCMA-hFc) [4]: 209 ratio of MFI to secondary antibody alone
percent cytotoxicity (calcein release), H929 target cells, T effector:target ratio 0.78, mean [5]: 0.9%
percent cytotoxicity (calcein release), H929 target cells, T effector:target ratio 1.56, mean [5]: 1.8%
percent cytotoxicity (calcein release), H929 target cells, T effector:target ratio 3.13, mean [5]: 2.9%
percent cytotoxicity (calcein release), H929 target cells, T effector:target ratio 6.25, mean [5]: 4.2%
percent cytotoxicity (calcein release), H929 target cells, T effector:target ratio 12.5, mean [5]: 9.3%
percent cytotoxicity (calcein release), H929 target cells, T effector:target ratio 25, mean [5]: 19.4%
percent cytotoxicity (calcein release), H929 target cells, T effector:target ratio 50, mean [5]: 29.3%
percent cytotoxicity (calcein release), MOLP8 target cells, T effector:target ratio 0.78, mean [5]: -2.9%
percent cytotoxicity (calcein release), MOLP8 target cells, T effector:target ratio 1.56, mean [5]: 0.2%
percent cytotoxicity (calcein release), MOLP8 target cells, T effector:target ratio 3.13, mean [5]: 2.2%
percent cytotoxicity (calcein release), MOLP8 target cells, T effector:target ratio 6.25, mean [5]: 5.8%
percent cytotoxicity (calcein release), MOLP8 target cells, T effector:target ratio 12.5, mean [5]: 8.2%
percent cytotoxicity (calcein release), MOLP8 target cells, T effector:target ratio 25, mean [5]: 10.9%
percent cytotoxicity (calcein release), MOLP8 target cells, T effector:target ratio 50, mean [5]: 14%

B3: BCMA 16732 VL-VH chimeric antigen receptor (scFv of mAb16732) (scFv)
chain: DIQMTQSPSSLSASVGDRVTITCRTSQSIGNYLNWFQQKPGKAPKLLIYTASSLQNGVPSRFTGSGSGTDFTLTISSLQPEDFVIYYCQQSFSTPYTFGQGTKLEIKGGGGSGGGGSGGGGSEVQLVESGGGLVQPGRSLRLSCAASGFTFDDYAMHWVRQAPGKGLEWVSGISWNSGNMGYADSVKGRFTISRDNAKNSLFLQMHSLRAEDTAFYYCAKVRLTAFDFWGQGTLVTVSSTTTPAPRPPTPAPTIASQPLSLRPEACRPAAGGAVHTRGLDFACDIYIWAPLAGTCGVLLLSLVITLYCKRGRKKLLYIFKQPFMRPVQTTQEEDGCSCRFPEEEEGGCELRVKFSRSADAPAYKQGQNQLYNELNLGRREEYDVLDKRRGRDPEMGGKPRRKNPQEGLYNELQKDKMAEAYSEIGMKGERRRGKGHDGLYQGLSTATKDTYDALHMQALPPR
notes: 3C7 cells; a linker before the hinge or a signal peptide may be present; also called 16732 VL-VH CART; 16732 CAR
CAR-T Max Activity (NFAT-luciferase, S:N), APC Daudi [2]: 4.9 S:N (highest RLU / lowest RLU)
CAR-T Max Activity (NFAT-luciferase, S:N), APC RAJI [2]: 16.8 S:N (highest RLU / lowest RLU)
CAR-T Max Activity (NFAT-luciferase, S:N), APC RPMI8226 [2]: 5.2 S:N (highest RLU / lowest RLU)
S:N (Isotype-hFc) (ratio of MFI to secondary antibody alone) [3]: 1
S:N (BCMA-hFc) [4]: 13.1 ratio of MFI to secondary antibody alone
